Data as given in patent US20180230200A1 (CITY OF HOPE, published 2018).

Experiments:
[1] = target: T1, gH of HCMV strain Towne (human cytomegalovirus strain Towne, UniProt P17176 30-742); assay: immunoblot, lysates of HCMV-infected MRC-5
T1 sequence: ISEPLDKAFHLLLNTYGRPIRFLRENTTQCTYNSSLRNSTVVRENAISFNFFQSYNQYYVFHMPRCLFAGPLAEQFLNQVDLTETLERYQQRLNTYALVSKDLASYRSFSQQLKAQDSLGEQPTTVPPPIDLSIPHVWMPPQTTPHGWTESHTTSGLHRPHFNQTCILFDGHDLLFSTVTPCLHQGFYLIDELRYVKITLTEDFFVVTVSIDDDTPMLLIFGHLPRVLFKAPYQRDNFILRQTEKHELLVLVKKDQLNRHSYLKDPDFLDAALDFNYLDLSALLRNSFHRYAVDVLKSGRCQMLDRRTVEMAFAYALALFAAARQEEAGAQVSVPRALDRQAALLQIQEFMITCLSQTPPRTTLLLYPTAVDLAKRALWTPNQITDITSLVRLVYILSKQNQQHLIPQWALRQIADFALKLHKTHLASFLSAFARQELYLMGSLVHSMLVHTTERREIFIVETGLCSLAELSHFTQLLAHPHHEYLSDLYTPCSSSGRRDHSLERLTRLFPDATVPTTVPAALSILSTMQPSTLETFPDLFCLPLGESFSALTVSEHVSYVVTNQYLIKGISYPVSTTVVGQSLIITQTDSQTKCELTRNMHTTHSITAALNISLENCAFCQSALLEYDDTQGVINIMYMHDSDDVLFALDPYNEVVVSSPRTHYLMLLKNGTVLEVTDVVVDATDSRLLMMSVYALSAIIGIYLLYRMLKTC

[2] = target: T2, gH/gL/UL128/UL130/UL131A pentamer complex expressed from MVA-PC in BHK-21 cells (human cytomegalovirus, UniProt P12824 24-743; P16832 31-278; P16837 28-171; P16772 1-214; F5HET4 19-129); assay: FC competition, MVA-PC BHK-21; unlabelled row Ab; competitor: biotinylated 21F6
T2 construct: whole, on cells

[3] = target: T3, UL128 expressed from MVA in BHK-21 cells (human cytomegalovirus, UniProt P16837 28-171); assay: intracellular FC, MVA-infected BHK-21
T3 construct: whole, on cells
T3 sequence: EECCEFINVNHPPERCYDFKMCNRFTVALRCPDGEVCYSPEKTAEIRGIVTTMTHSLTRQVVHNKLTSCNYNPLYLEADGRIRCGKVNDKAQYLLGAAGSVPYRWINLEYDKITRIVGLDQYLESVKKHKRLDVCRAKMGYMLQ
Experimental: (§1) NAb subunit specificity was evaluated by staining BHK-21 cells infected with different MVA recombinants. One or more vectors were used to co-infect BHK-21 at an MOI of 5. […] Four hours post infection cells were fixed and permeabilized using Cytofix/Cytoperm solution (BD Biosciences). NAbs (1 mg/ml) were diluted 1:500 in perm/wash buffer (BD) and added to the cells for 1 hour at 4° C. […] Cells were washed again and resuspended in PBS/0.1% BSA. Fifteen thousand events were collected using the Gallios Flow Cytometer (Beckman Coulter, Miami, Fla., USA) and analyzed with FlowJo Software (Tree Star, Ashland, Oreg., USA). Uninfected cells and cells infected with MVA-Venus were used as controls. GFP expression was analyzed for confirming MVA infection since all the constructs contain a GFP expression cassette (36, 62).
(§2) In order to determine the antigen specificity of the vaccine-derived NAbs, intracellular flow cytometry (FC) staining of permeabilized BHK-21 cells infected with MVA expressing single subunits or combinations of two or more subunits of the PC was evaluated.

[4] = target: T4, UL130/UL131A co-expressed from MVA in BHK-21 cells (human cytomegalovirus, UniProt P16772 1-214; F5HET4 19-129); assay: intracellular FC, MVA-infected BHK-21
T4 construct: whole, on cells
Experimental: as §1, §2

[5] = target: T5, UL130 expressed from MVA in BHK-21 cells (human cytomegalovirus, UniProt P16772 1-214); assay: intracellular FC, MVA-infected BHK-21
T5 construct: whole, on cells
Experimental: as §1, §2

[6] = target: T6, UL128/UL130/UL131A co-expressed from MVA in BHK-21 cells (human cytomegalovirus, UniProt P16837 28-171; P16772 1-214; F5HET4 19-129); assay: intracellular FC, MVA-infected BHK-21
T6 construct: whole, on cells
Experimental: as §1, §2

[7] = target: T7, UL128/UL130 co-expressed from MVA in BHK-21 cells (human cytomegalovirus, UniProt P16837 28-171; P16772 1-214); assay: intracellular FC, MVA-infected BHK-21
T7 construct: whole, on cells
Experimental: as §1, §2

[8] = target: T8, UL128/UL131A co-expressed from MVA in BHK-21 cells (human cytomegalovirus, UniProt P16837 28-171; F5HET4 19-129); assay: intracellular FC, MVA-infected BHK-21
T8 construct: whole, on cells
Experimental: as §1, §2

[9] = target: T9, UL131A expressed from MVA in BHK-21 cells (human cytomegalovirus, UniProt F5HET4 19-129); assay: intracellular FC, MVA-infected BHK-21
T9 construct: whole, on cells
Experimental: as §1, §2

[10] = target: T2, gH/gL/UL128/UL130/UL131A pentamer …; assay: FC competition, MVA-PC BHK-21; unlabelled row Ab; competitor: biotinylated 62-11; note: test concentration or dose not given here
[11] = target: T2, gH/gL/UL128/UL130/UL131A pentamer …; assay: FC competition, MVA-PC BHK-21; unlabelled row Ab; competitor: biotinylated 18F10
[12] = target: T2, gH/gL/UL128/UL130/UL131A pentamer …; assay: FC competition, MVA-PC BHK-21; unlabelled row Ab; competitor: biotinylated 21E9; note: test concentration or dose not given here
[13] = target: T2, gH/gL/UL128/UL130/UL131A pentamer …; assay: FC competition, MVA-PC BHK-21; unlabelled row Ab; competitor: biotinylated AP86; note: test concentration or dose not given here
[14] = target: T2, gH/gL/UL128/UL130/UL131A pentamer …; assay: FC competition, MVA-PC BHK-21; unlabelled row Ab; competitor: biotinylated 1B2
[15] = target: T2, gH/gL/UL128/UL130/UL131A pentamer …; assay: FC competition, MVA-PC BHK-21; unlabelled row Ab; competitor: biotinylated 12E2

B1: 18F10 (antibody, V domains shown)
VH: QVTLKESGPGILQPSQTLSLTCSFSGFSLSTYGIGIGWIRQPSGKGLEWLAHIWWNDNKNYNTALKSRLTISKDPSNNQVFLKIASVDTADTATYFCARTGYFDVWGAGTTVTVSS
VL: DVVLTQTPLSLPVSLGDQVSISCSSSQSLVHSNGNTYIHWYLQKPGQSPKLLIYTVSNRFSGVPDRFSGSGSGTDFTLKISRVEAEDLGLYFCSQSTHVPYTFGGGTKLEIK
notes: also called NAb 18F10
- binding result [1]: no binding (tested: 10 µg/ml)
- Binding Inhibition (%) [2]: 0%
- binding result [3]: no binding
- binding result [4]: no binding
- binding result [5]: no binding
- binding result [6]: no binding
- binding result [7]: no binding
- binding result [8]: no binding
- binding result [9]: no binding
- Binding Inhibition (%) [10]: 0%
- Binding Inhibition (%) [11]: 100%
- Binding Inhibition (%) [12]: 0%
- Binding Inhibition (%) [13]: 100%
- Binding Inhibition (%) [14]: 0%
- Binding Inhibition (%) [15]: 0%
